These results are taken from PMC9866879, “BREVIPEDICELLUS Positively Regulates Salt-Stress Tolerance in Arabidopsis thaliana”.

Series [1] addresses T1, BP (B…US) (Arabidopsis thaliana, UniProt P46639 1-398).
T1 sequence: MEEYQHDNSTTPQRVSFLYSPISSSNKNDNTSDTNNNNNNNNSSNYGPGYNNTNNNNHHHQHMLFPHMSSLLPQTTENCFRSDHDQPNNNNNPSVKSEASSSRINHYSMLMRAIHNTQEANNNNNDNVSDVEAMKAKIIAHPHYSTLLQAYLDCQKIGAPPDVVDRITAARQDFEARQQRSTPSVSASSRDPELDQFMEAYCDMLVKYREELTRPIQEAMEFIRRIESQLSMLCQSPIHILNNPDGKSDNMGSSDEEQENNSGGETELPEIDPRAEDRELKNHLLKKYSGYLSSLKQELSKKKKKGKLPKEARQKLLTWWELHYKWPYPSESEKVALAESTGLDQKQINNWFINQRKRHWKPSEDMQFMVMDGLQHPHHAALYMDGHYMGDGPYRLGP
The series is described as follows: competition; unlabeled competitor against biotin-labelled N1; signal gradually decreased; LightShift Chemiluminescent EMSA kit (Thermo) per manufacturer's protocol; buffer, salt, pH and temperature not stated. Conditions: protein: recombinant; tags: GST (pGEX4T-3); blunt.

Series [2] has as its target T1, BP (B…US). Description: EMSA; LightShift Chemiluminescent EMSA kit (Thermo) per manufacturer's protocol; buffer, salt, pH and temperature not stated. The settings on record: protein: recombinant; tags: GST (pGEX4T-3); label: biotin; blunt. (A gel shift assay detects complexes by their altered migration in electrophoresis.)

B1: XTH7 promoter probe, unlabeled competitor (dsDNA)
DNA 1: TGTAATGCTGACACGTGTCCCAGT
DNA 2: ACTGGGACACGTGTCAGCATTACA
Take B1: the binding result in the series with BP (B…US) [1] is “binds”.

B2: XTH7 promoter probe (TGAC) (dsDNA)
DNA 1: TGTAATGCTGACACGTGTCCCAGT
DNA 2: ACTGGGACACGTGTCAGCATTACA
For the molecule B2, the binding result with BP (B…US) [2] is “binds”.
